Reference: paper PMC5651819, “AtSPX1 affects the AtPHR1–DNA-binding equilibrium by binding monomeric AtPHR1 in solution” (Biochemical Journal, 2017)

Biological target: MBP-AtdPHR1 (Arabidopsis thaliana) (UniProt Q94CL7)
Assay: SPR
Details: SPR (Biacore 3000, SA chip, ~500 RU DNA): 10 mM HEPES pH 7.5, 200 mM NaCl, 0.01% Surfactant P-20, 25 C, 40 ul/min, with or without Pi/InsP6

Sequence of MBP-AtdPHR1 (Arabidopsis thaliana) (Q94CL7 208-362): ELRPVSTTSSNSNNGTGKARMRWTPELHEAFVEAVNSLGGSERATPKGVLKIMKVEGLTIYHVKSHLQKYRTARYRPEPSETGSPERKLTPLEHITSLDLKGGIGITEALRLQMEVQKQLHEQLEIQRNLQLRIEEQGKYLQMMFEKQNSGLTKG

“ACACTTCGTCACGCTAAAGCTAAGCATATCCGCTTTCATATTCCTTTACACAAC (double strand) [1x P1BS probe]” gave a Kd of 707 nM.
